According to the RNAGym collection of RNA variant scans (doi:10.7554/elife.80360):

B1: HDV Ribozyme (parent)
chain: GGCCGGCAUGGUCCCAGCCUCCUCGCUGGCGCCGGCUGGGCAACAUUCCGAGGGGACCGUCCCCUCGGUAAUGGCGAAUGGGACCCA

Variants of: B1
Assay: self-cleavage, relative activity (ratio to wild type); higher = more cleavage; co-transcriptional
With GGCCGGCAUUGUCCCAGACUCCUCGCUGGCGCCGGCUGGGCAACAUUCCGAGGGGACCGUCCCCUCGGUAAUGGCGAAUGGGACCCA the self-cleavage was 0.0175.
Variant GGCCGGCAUGGUCCCAGCCUCCUCGCUGGCGCCGGCUGGGCAACAUUCCGAGGGGACCGUCCCCUCGGGAGUGGCGAAUGGGACCCA has a self-cleavage of 1.16.
Variant GGCCGGCAUGGUCCCAGCCUCCUCGCUGGCGCCGGCAGGGCAACAUUCCGAGGGGACCGUCCCCUAGGUAAUGGCGAAUGGGACCCA has a self-cleavage of 0.29.
Variant GGCCGGCAUGGUCCCAGCCUCCUCGCUGGCGACGGCUGGGCAACAUUCCGAGGGGACCGUCCCCGCGGUAAUGGCGAAUGGGACCCA has a self-cleavage of 0.122.
Work on GGCCGGCAUGGUCCCAGCCUCCUCGCUGGCGCCGGCUGGGAAACAUUCCGAGGCGACCGUCCCCUCGGUAAUGGCGAAUGGGACCCA yielded a self-cleavage of 1.08.
GGCCGGCAUGGUCCCAGCCUCCACGCUGGCGCCGGCAGGGCAACAUUCCGAGGGGACCGUCCCCUCGGUAAUGGCGAAUGGGACCCA showed a self-cleavage of 0.0997.
Work on GGCCGGCAUGGUCCCAGCCUCCUCGCUGGCGCAGGCUGGGCAACAUUCCGAGGGGACCGUCCCCUCGGUAAUGGCGAAUGGGACACA yielded a self-cleavage of 0.18.
For GGCCGGCAUGGUCCCAGCCUCCUCGCUGGCGCCGGCUGGGCAACAUUGCGAGGGGACCGACCCCUCGGUAAUGGCGAAUGGGACCCA, the self-cleavage was 0.864.
Work on GCCCGGCAUGGUCCCAGCCUCCUCGCUGGCGCCGGCUGGGCAACAUUCCGAGGGGACCGUCCCCUCGGUAAUGGCGACUGGGACCCA yielded a self-cleavage of 0.
In the case of UGCCGGCAUGGUCCCAGCCUCCUCGCUGGCGCCGGCUGGGCUACAUUCCGAGGGGACCGUCCCCUCGGUAAUGGCGAAUGGGACCCA, the self-cleavage is reported as 0.332.
Variant GUCCGGCAUGGUCCCAGCCUCCUCGCUGGCGCCGGCUGGGCAACAGUCCGAGGGGACCGUCCCCUCGGUAAUGGCGAAUGGGACCCA has a self-cleavage of 0.0231.
In the case of GGCCGGCAUGGUCCCAGCCUCCUCGCUGGGGCCGGCUGGGCAACAUUCCCAGGGGACCGUCCCCUCGGUAAUGGCGAAUGGGACCCA, the self-cleavage is reported as 0.157.
GGCCGGCAUGGUCCCAGCCUCCUCGCUGGCGCCGGCUGGGCAACAUUCAGAGGGGACCGCCCCCUCGGUAAUGGCGAAUGGGACCCA showed a self-cleavage of 0.78.
GGCCGGCAUGGUCCCAGCCUUCUCGGUGGCGCCGGCUGGGCAACAUUCCGAGGGGACCGUCCCCUCGGUAAUGGCGAAUGGGACCCA gave a self-cleavage of 0.406.
GGCUGGCAUGGUCCCAGCCUCCUCGCUGGCGCCGGCUGGGCAACAUUCCGAGGGGACCGUCCCCUCGGUAAUGGCGCAUGGGACCCA gave a self-cleavage of 0.0978.
For GGCCGGCAUGGUCCCAGCCUCCUCGCUGGCGCCGGCUGGGCAACAUUCCAAGGGGACCGUCCCCUCGGUAAUGGCGACUGGGACCCA, the self-cleavage was 0.138.
With GGCCGGCAUGGUCCCAGCCUCCUCGCUGGCGCCGGCUGGGCAACAUUCCGAGGGGACCGUCCCCUUGGUUAUGGCGAAUGGGACCCA the self-cleavage was 0.919.
Variant GGCCGGCAUGGUCCCAGCCUCCUCGCUGGCGCCGGCUGGGCAACAUUCCGAGGGGACCGUCCCCUCGCUAAUGGCGAAUGGGAUCCA has a self-cleavage of 0.796.
Work on GGCCGGCAUGGUCCCAGCCUCCUCGCUGGCGCCGGCUGGGCAACAUUCCGAGUGGAACGUCCCCUCGGUAAUGGCGAAUGGGACCCA yielded a self-cleavage of 0.944.
Work on GGCCGGCAUGGUCCCAGCCUCCUCGCUGGCGCCGGCGGGGCAACAUUCCGAGGGGAACGUCCCCUCGGUAAUGGCGAAUGGGACCCA yielded a self-cleavage of 0.0978.
For GGCCGGCAUGGUCCCAGCCUCCUCGCUGGCGCCGGCUGGGCAACAUUCCGAGGGGACCGUCCCCUCGGUAAUGUCUAAUGGGACCCA, the self-cleavage was 0.794.
GGCCGGCAUGGCCCCAGCCUCCUCGCUGGCGCCGGCUGGGCAACCUUCCGAGGGGACCGUCCCCUCGGUAAUGGCGAAUGGGACCCA showed a self-cleavage of 0.0504.
Work on GGCAGGCAUGGUCCCAGCCUCCUCGCUGGCGCCGGCUGGGCAACAUUCCAAGGGGACCGUCCCCUCGGUAAUGGCGAAUGGGACCCA yielded a self-cleavage of 0.172.
In the case of GGCCGGCAUGGUCCCAGCGUCCUCGCUGGCGCCGGCUGGGCAACAUUCCGAGGGGACCGUCCCCUCGGUAAUGGCGAAUGGGGCCCA, the self-cleavage is reported as 0.0678.
In the case of GGCCGGCAUGGUCCCAGCCAGCUCGCUGGCGCCGGCUGGGCAACAUUCCGAGGGGACCGUCCCCUCGGUAAUGGCGAAUGGGACCCA, the self-cleavage is reported as 0.256.
Variant GACCGGCAUGGUCCCAGCCUCCUCGCUGGCGCCGGCUGGGCAACAUUCCGAGGGGACCGUCCCCUCGGUAAUGGCGAAUGGGAACCA has a self-cleavage of 0.0519.
In the case of GGCCGGCAUGGUCCCAGCUUCCUCGCUGGCGCCGGCUGGGCAACAUUCCGAGGGGACCGUACCCUCGGUAAUGGCGAAUGGGACCCA, the self-cleavage is reported as 0.243.
With GGCCGGCAUGGUCCCAGCCUCCGCGCUGGCGCCGGCUGGGCAACAUUCCGAGGGGACCGUCCCCUCGGUAAUGGCGAAUGGGCCCCA the self-cleavage was 0.
In the case of GGACGGCAUGGUCCCAGCCUCCUCGCUGGCGCCGGCUGGGCAACAUUCCGAGGGGACCGUCCCCUCGGUAAUGGCGAAAGGGACCCA, the self-cleavage is reported as 0.175.
Work on GGCCGGCGUGGUCCCAGCCUCCUCGCUGGCGCCGGCUGGGCAACAUUCCGAGGGGACCGUCCCCUCGCUAAUGGCGAAUGGGACCCA yielded a self-cleavage of 1.06.
For GGCCGGCAUGGUCCCAGCCUCCUCGCUGGCGCCGGCUGGGCAACAUUCCGAGGGGACCGUGCCCUCGCUAAUGGCGAAUGGGACCCA, the self-cleavage was 0.665.
In the case of GGCCGGCAUGGUCCCAGCCUCCUCGCUGGCGCCGGCUGGGCAAGAUUCCGAGCGGACCGUCCCCUCGGUAAUGGCGAAUGGGACCCA, the self-cleavage is reported as 0.733.
CGCCGGCAUGGUCCCAGCCUCCUCGCUGGCGCCGGCUGGGCAACAUUCCGAGGGGACCGUCCCUUCGGUAAUGGCGAAUGGGACCCA showed a self-cleavage of 0.155.
In the case of GGCCGGCAUGGUCCCAGCCUCCUCGCUGGCGCCGGCUGGGCAACAUUCCGAGGCGACCGUCCCCUCGGUAAUGGCGAAUGGGACCAA, the self-cleavage is reported as 0.962.
GACCGGCAUGGUCCCAGCCUCCUCGCAGGCGCCGGCUGGGCAACAUUCCGAGGGGACCGUCCCCUCGGUAAUGGCGAAUGGGACCCA gave a self-cleavage of 0.0997.
In the case of GGCCGGCAUGGUCCCAGCCUCCUCGCUGGCGCCGGCUGGGCAACAUUCCGAGGGGACCGUCCCGUCGGUAAUGGUGAAUGGGACCCA, the self-cleavage is reported as 0.163.
GGCCGGCCUUGUCCCAGCCUCCUCGCUGGCGCCGGCUGGGCAACAUUCCGAGGGGACCGUCCCCUCGGUAAUGGCGAAUGGGACCCA showed a self-cleavage of 0.415.
GGCCGGCAUGGUCCCAGCCUCCUCACUGGCGCCGGCUGGGCAACAUUCCGAGGGGACCGUCCCCUCGGUAAUGGCGAAUGGCACCCA gave a self-cleavage of 0.089.
GGCCGGCAUGGUCCCAGCCUCCUCGCUGGCGCCGGCUGGGCAACAUUCCAAGGGGACCGUGCCCUCGGUAAUGGCGAAUGGGACCCA gave a self-cleavage of 0.91.
In the case of GGCCGGCAUGGUCCCAGCCCCGUCGCUGGCGCCGGCUGGGCAACAUUCCGAGGGGACCGUCCCCUCGGUAAUGGCGAAUGGGACCCA, the self-cleavage is reported as 0.0554.
GGCCGGCAUGGUCCCAGCCUCCUCGCUGGCACCGGCUGGGCAACAUUCCGAGGGGACCGUCCCCUCGGUAAUGGCGUAUGGGACCCA showed a self-cleavage of 0.0906.
Work on GGCCGGCAUGGUCCCAGUCUCCUCGCUGGCGCGGGCUGGGCAACAUUCCGAGGGGACCGUCCCCUCGGUAAUGGCGAAUGGGACCCA yielded a self-cleavage of 0.252.
GGCCGGCAUGGUCCCAGCGUCCUCGCUGGCGCCGGCUGGGCAACAUUCCGAGGGGACCGUCCCCUCGGUAAUGGUGAAUGGGACCCA gave a self-cleavage of 0.161.
In the case of GGCCGGCAUGGUCCCAGCCUCCUCGCUGGCACCGGCUGGGCCACAUUCCGAGGGGACCGUCCCCUCGGUAAUGGCGAAUGGGACCCA, the self-cleavage is reported as 0.102.
GGCCGGCAUGGUCCCAGCCUCCUCGUUGGCGCCGGCUGGGCAACAUUCCGAGGGGACCGUCCCCUCGGUAAUGGCGAAUGGGAGCCA showed a self-cleavage of 0.962.
Work on GGCCGGCAUGGUCCCAGCCUCCUCGCUGGCCCCGGCUGGGCGACAUUCCGAGGGGACCGUCCCCUCGGUAAUGGCGAAUGGGACCCA yielded a self-cleavage of 0.0755.
Variant GGCCGGCAUGGUCCCAGCCUCCUCGCUGGCGCCGGCUGGGCAAAAUUCCGAGGGGACCGUCCCCUCGGCAAUGGCGAAUGGGACCCA has a self-cleavage of 0.677.
GGCCGGCAUGAUCCCAGCCUCCGCGCUGGCGCCGGCUGGGCAACAUUCCGAGGGGACCGUCCCCUCGGUAAUGGCGAAUGGGACCCA showed a self-cleavage of 0.13.
With GGCCGGCAUGGUCCCAGCCUCCUCGCUGGCGCGGGCUGGGCAACAUUCCGAGGGGACCCUCCCCUCGGUAAUGGCGAAUGGGACCCA the self-cleavage was 0.201.
Variant GGCCGGCAUGGUCCCAGCUUCCUCGCUGGCGCCGGCUGGGCAACAUUCCGAGGGGACCGUCCCCUCGGUAAUGGCGAAUGGGACCUA has a self-cleavage of 0.122.
With GGCCGGCAUGGUCCCAGCGUCCUCGCUGGCGCCGGCUGGGCAACAUUCCGAUGGGACCGUCCCCUCGGUAAUGGCGAAUGGGACCCA the self-cleavage was 0.145.
Work on GGCCGGCAUGCUCCCAGCCUCCUCGCUGGAGCCGGCUGGGCAACAUUCCGAGGGGACCGUCCCCUCGGUAAUGGCGAAUGGGACCCA yielded a self-cleavage of 0.0804.
Work on GCCCGGCAUGGUCCCAGCCUCCUCGCUGGCGCCGGCUGGGCAACAUUCCGAGGGGACCGUCACCUCGGUAAUGGCGAAUGGGACCCA yielded a self-cleavage of 0.0462.
In the case of GGCCGGCAUGGUCCCAGCCUCCUCGCUGGCGCCGGCUGGGCAACAUUCCGAGGGGACCAUCCCCUCGGUAGUGGCGAAUGGGACCCA, the self-cleavage is reported as 0.984.
Variant GGCCGGCAUGGUCCCAGCCUCCUCGCUGGCGCCGGCCGGGCAACAUUCCGAGCGGACCGUCCCCUCGGUAAUGGCGAAUGGGACCCA has a self-cleavage of 1.2.
Work on GGCCGGCAUGGUCCCAGCCUCAUCGCUGGCGCCGGCUGGGCAACAUUCCGAGGGGACCGUCCCCUCGGUAACGGCGAAUGGGACCCA yielded a self-cleavage of 0.
GGCGGGCAUGGUCCCAGCCUCCUCGCUGGCGCCGGCUGGGCAACAUUCCGAGGGGACCGUCCCCUCGGUAAUGGCGACUGGGACCCA showed a self-cleavage of 0.0923.
GGCCGGCAUGGUCCCAGCCUCCUCGCUGGAGCCGGCUGGGCAACAUUCCGAGGGGACCGUCCCCUCGGUAAUGGCGAAUGGGACCCU gave a self-cleavage of 0.537.
GGCCGGCAUGGUCCCAGCCUCCUCGCUGGCGCCGGCUGGGCAACAUUCCGAGGGGAGCGUCCCCUCGGUGAUGGCGAAUGGGACCCA gave a self-cleavage of 0.856.
GGCCGGCAUGGUCCCAGCCUCCUCGCUGGCGCCGGCUGGGCAACAUUCCGAGGGGAACGUCCCCUCGGUAUUGGCGAAUGGGACCCA gave a self-cleavage of 0.929.
GGCCGGCAUGGUCCCAGCCUCCUCGCUGGCGCCGGCUGGGCAACAUUCCGAGGGGACCGUCCUCUCGGUAAUGGCGAAUGGGACCCA gave a self-cleavage of 1.
GGCUGGCAUGGUCCCAGCCUCCUCGCUGGCGCCGGCUGGGCAACAUUCCGAGGGGACCGUCCCCUAGGUAAUGGCGAAUGGGACCCA gave a self-cleavage of 0.755.
For CGCCGGCAUGGUCCCAGCCUCCUCGCUGGCGCCGGCUGGGCAAUAUUCCGAGGGGACCGUCCCCUCGGUAAUGGCGAAUGGGACCCA, the self-cleavage was 0.0615.
In the case of GGCCGGCAUGGUCCCAGCCUCCUCGCUGGCGCCAGCUGGGCAACAUUCCGAGGGGACCGUCCCCUCGGUAAUGGCGAAUGGGAACCA, the self-cleavage is reported as 0.126.
